{"source": "patent US20190300625A1", "about": "(Regeneron, published 2019)", "key": {"[1]": {"target": "cynomolgous monkey TMPRSS2 (XP_015302311.1 with S129L, N251S, I415V, R431Q, D492G) expressed on … (cynomolgous monkey; SEQ ID NO …)", "sequence (chain, as listed by the source S129L N251S I415V R431Q D492G S129L N251S I415V R431Q D492G limits assumed)": "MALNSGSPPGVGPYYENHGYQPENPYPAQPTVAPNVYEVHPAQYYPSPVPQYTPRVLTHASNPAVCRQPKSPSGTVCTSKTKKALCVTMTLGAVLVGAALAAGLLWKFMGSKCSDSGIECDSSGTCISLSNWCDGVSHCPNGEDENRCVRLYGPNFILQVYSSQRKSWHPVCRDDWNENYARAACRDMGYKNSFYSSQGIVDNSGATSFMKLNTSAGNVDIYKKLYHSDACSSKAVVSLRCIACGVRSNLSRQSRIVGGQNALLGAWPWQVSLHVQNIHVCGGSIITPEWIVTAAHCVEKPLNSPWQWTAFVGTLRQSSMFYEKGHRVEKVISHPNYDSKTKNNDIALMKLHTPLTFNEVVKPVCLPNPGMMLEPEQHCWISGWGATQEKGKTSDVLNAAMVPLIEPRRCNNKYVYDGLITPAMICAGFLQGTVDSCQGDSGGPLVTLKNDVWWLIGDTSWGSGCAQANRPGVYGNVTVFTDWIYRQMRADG", "assay": "flow cytometry on MDCK/Tet-on/mfTMPRSS2 cells, doxycycline-induced"}, "[2]": {"target": "human TMPRSS2 (NP_005647.3 with a V160M) expressed on MDCK/Tet-on/hTMPRSS2 cells (human, UniProt O15393 1-492)", "sequence (O15393 whole entry V160M)": "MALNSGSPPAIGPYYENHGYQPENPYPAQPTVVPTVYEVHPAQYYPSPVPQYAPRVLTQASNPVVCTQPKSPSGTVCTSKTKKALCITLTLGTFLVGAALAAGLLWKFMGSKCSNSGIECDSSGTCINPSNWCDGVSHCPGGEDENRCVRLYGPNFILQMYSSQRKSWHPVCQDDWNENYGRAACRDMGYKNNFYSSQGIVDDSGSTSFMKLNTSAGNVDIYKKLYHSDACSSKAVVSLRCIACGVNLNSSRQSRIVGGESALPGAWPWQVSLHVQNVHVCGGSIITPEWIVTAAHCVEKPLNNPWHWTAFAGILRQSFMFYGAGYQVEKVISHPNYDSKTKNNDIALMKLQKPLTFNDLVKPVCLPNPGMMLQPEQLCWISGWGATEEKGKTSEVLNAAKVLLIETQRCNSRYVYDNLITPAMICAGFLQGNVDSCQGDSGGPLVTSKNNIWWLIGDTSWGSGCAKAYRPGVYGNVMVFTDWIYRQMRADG", "assay": "flow cytometry on MDCK/Tet-on/hTMPRSS2 cells, doxycycline-induced"}}, "data": [{"binder": "H1H7017N (antibody, human IgG1, kappa, V domains shown, also called anti-TMPRSS2 mAb; anti-hTMPRSS2 antibody) VH: QVQLVESGGGVVQPGRSLRLSCAASGFTFSSYGMHWVRQSPGKGLEWVAVIWNDGSYVYYADSVKGRFTISRDISKNTLFLQMNSLRAEDTAVYYCAREGEWVLYYFDYWGQGTLVTVSS VL: not shown", "values": [{"measurement": "EC50", "setting": "[1]", "value": 1.06, "unit": "nM"}, {"measurement": "EC50", "setting": "[2]", "value": 0.46, "unit": "nM"}]}]}
